Target: myeloperoxidase (human (endogenous in neutrophils))
Assay: SEC; unactivated azurophilic granules permeabilized with 0.1% NP-40, Superdex 200 GL, 20 mM HEPES pH 7.4, 100 mM NaCl, 0.5 U/ml heparin; fractions probed for NE and MPO; proteins of the complex detected by mass spectrometry

Chain of myeloperoxidase (human (endogenous in neutrophils)) (P05164 165-745): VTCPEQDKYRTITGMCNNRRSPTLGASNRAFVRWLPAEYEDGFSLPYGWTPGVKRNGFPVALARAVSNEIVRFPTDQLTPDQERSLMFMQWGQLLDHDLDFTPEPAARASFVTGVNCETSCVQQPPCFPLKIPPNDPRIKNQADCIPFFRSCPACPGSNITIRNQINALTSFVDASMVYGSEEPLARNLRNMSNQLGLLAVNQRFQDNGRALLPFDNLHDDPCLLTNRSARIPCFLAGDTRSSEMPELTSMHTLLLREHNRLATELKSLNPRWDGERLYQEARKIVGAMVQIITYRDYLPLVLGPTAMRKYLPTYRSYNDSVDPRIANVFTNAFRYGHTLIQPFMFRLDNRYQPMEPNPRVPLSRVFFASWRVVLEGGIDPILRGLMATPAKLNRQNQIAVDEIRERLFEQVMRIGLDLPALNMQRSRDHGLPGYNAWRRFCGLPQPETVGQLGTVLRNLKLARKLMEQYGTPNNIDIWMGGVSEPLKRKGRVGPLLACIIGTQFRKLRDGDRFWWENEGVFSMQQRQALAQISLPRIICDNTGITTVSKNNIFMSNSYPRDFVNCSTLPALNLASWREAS

stoichiometry N: 2 NE per MPO
Substance: neutrophil elastase (from UniProt P08246 30-267) (enzyme)

— publication PMC4471680
